The results in this text go back to doi:10.1101/2020.01.12.903617, “The peptide sensor motif stabilizes the outward-facing conformation of TmrAB” (bioRxiv, 2020).

Residue numbers refer to the chain shown, from its start. No end group written: not given here. fluorescein = fluorescein label attached to the Cys side chain

For one test, the target named is T1, TmrAB D117A^TmrB (Thermus thermophilus, UniProt Q72J05 1-600; Q72J04 1-578, D117A).
T1 construct: TmrA, Thermus thermophilus, the chain of TmrAB with the canonical Walker B motif; TmrB, Thermus thermophilus, the chain of TmrAB with the non-canonical Walker B motif
T1 sequence 1: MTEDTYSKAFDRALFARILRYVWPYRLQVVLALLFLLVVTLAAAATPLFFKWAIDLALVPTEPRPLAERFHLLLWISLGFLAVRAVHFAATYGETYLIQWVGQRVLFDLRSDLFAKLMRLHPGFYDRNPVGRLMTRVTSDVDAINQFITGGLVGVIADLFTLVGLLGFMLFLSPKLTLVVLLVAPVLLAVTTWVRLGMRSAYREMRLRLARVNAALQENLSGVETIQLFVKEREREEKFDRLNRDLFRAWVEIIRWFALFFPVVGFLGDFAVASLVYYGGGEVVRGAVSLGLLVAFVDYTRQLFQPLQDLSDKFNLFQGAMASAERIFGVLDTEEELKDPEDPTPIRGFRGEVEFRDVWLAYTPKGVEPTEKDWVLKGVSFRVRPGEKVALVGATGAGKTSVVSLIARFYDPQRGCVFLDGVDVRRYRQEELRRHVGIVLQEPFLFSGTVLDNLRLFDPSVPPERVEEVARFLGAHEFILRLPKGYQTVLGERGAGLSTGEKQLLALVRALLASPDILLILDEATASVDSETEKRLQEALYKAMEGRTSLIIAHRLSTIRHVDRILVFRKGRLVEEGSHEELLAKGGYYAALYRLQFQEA
T1 sequence 2: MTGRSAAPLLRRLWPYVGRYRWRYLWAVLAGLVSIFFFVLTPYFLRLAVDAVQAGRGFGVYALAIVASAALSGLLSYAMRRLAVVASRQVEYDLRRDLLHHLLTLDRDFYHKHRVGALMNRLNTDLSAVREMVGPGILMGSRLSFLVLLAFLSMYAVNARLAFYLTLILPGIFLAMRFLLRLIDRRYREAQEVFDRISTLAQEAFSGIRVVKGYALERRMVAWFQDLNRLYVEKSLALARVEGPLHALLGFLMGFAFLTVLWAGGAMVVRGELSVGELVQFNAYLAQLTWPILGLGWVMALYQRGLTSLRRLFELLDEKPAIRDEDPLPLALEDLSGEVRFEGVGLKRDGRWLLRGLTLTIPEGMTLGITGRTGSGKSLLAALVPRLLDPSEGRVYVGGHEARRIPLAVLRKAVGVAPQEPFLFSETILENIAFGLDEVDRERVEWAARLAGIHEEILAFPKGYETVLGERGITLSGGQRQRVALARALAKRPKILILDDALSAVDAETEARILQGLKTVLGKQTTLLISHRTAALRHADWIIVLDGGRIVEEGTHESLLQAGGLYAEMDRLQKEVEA
Kind of test: fluorescence polarisation; 1.7 uM TmrAB with 50 nM RRY(C^Fluorescein)KSTEL in SEC buffer (20 mM HEPES, 150 mM NaCl, pH 7, 0.05% ß-DDM), 15 minutes on ice, in the absence or presence of 5 mM ATP and 10 mM MgCl2; read at 25°C (the results say 4°C); signal normalized to WT without ATP. The note with it: both partners purified. Background: Polarisation of emitted light reports the rotation of a fluorescent probe.

In another test the target is T2, TmrAB R121A^TmrB (Thermus thermophilus, UniProt Q72J05 1-600; Q72J04 1-578, R121A).
T2 construct: TmrA, Thermus thermophilus, the chain of TmrAB with the canonical Walker B motif; TmrB, Thermus thermophilus, the chain of TmrAB with the non-canonical Walker B motif
T2 sequence 1: T1 sequence 1
T2 sequence 2: T1 sequence 2 with A117D, R121A
The description is as above. The note with it: both partners purified.

B1: fluorescent transport substrate peptide RRY(C^Fluorescein)KSTEL (peptide)
peptide: RRYC(fluorescein)KSTEL
notes: fluorescein-labelled transport substrate peptide of TmrAB; also called fluorescently-labeled peptide substrate; peptide substrate; source: bought: Genscript
With B1, the binding result in the test with TmrAB D117A^TmrB and with TmrAB R121A^TmrB was “binds” in each case.
